This note sets out measurements from the domain aggregation screens of Martell et al. (2025).
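Also: 20 min heating vs room temperature control held 20 min.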

The nature of the data set: soluble fraction after stress (log2 fold change); higher = more stays soluble; pooled small domains, quantitative proteomics. The conditions noted are these: stress: 75 degC.
As for “HMDDEAVQIMTLHISKGLEFDVVFALGLVSRTPESKEIEELEAEKQRQLYVAMTRAEKWLIVAA”, the “soluble fraction (log2)” value was 0.202.
To “HMDDEDLAFLQREFVSYQQAMDYYGLGYKPVVRLSHISGSVYKIGKKVLIRRNIFEEYLRNHV” belongs 0.0397; to “HMDDFGERLRKLRVAQDLTQQQLGEKLGVVPSTIGKYEKVKDSYPSIEVLIKLSDFFSVSTDYLLKG”, -2.19.
To “HMDDFTEVLLQYLKDHDGYSSIHDKTDAETIYNTFGVSKKTFKKAVGDLYKKRLIVLEEEGIRLLG” belongs -0.151.
The value for “HMDDISLEEIKYISSKLETKVNEIEELLVRYYDGETNEAEEKELKEFFAQADVPAHLLAEKRLFMQLASQ” was 0.245; that for “HMDDKVGKVFNYVQEKILTGEWDIGDKITPEISLSKELGVSRSVVREAIKKFVALNILSRTQGGGTYVNNL” was -0.848; that for “HMDDNMNEQWKMILNSIAKKGSVTRQETEKILGIGQTRAHVLLKAMIHAGMIKAVGDGKKRRYVR” was -2.28.
For “HMDDNRSLSDLAQQVFKRENIQVSRDTLSLLVSRLGSDRAVSRQEIEKLALFAGSNGKLTEEDIHNALG”, the “soluble fraction (log2)” value stood at 0.0459.
Take “HMDDPISSMVNRIRLAFGLSVTDLAAVLGVERPTIYSWLKDGSTPAPARLTRVRQVLSLADTW”: the “soluble fraction (log2)” value was -0.729.
As for “HMDDPITVAYRETEDAIAQVQREGFPVEMPPANSYIRRIQHELAGRFNLDSESYGDEPERRVRIRPQQ”, the “soluble fraction (log2)” value was -0.107.
Consider “HMDDPTVILFDPKNGQRKIVKWKAGLTLYSARRSAGISSAAEATIQRAGKSLSGRTATALEPGDVIRW”, for which the “soluble fraction (log2)” value was -1.74.
The value for “HMDDSSLFGRHTGIGFIVDDIDSGYQTLLAKGVSFEMPPTEQPWGGILALMKDPDGNIFYLD” was -0.0389; that for “HMDDTRLLSEIGLSQRVLNALRARGIERVGQVLAMRPDQLLGIRNFGPRALQELRERLQENGYTEGPLFSG” was 0.379.
As to “HMDDVIDVYATYDVSPTNQISNIKLYSDAAHANPVTGEAGKSYNDITEGHPGYQFRWSGTTWVPI”, the “soluble fraction (log2)” value was -1.04.
To “HMDDVIEVEGKVVEVLPNTKFIVELANSHKITAHISGKLRMNYIRIMKGDNVTVEMSPYDLTKGRIIWRS” belongs -0.165; to “HMDDVVVLPFTAEFARMSSDDFVREILVGKIGMKRFVVGYNHRFGSGQQGDFASLQRMQGELGFVAVRVG”, 0.368.
The value for “HMDDVYMVPVKDIAINDLKQEFEKLGIPNIQNTIPDKDLNFFIVRKDDLALVNYAIEKTMER” was 0.0193.
For the sequence “HMDEAETELIRRMVSEHPPTTKRERDIVQMRLRGYLFVEIGEAYGISFQRAAQIYNAAVEKIKEYWD”, the “soluble fraction (log2)” value is -0.242.
For the sequence “HMDEEQIASRRALIMRAAREIMETQGMEALSIRKIAAMIQQTPGIIYHYFSGKEELMLAVVQEGYH”, the “soluble fraction (log2)” value is -0.00144.
On to “HMDEFAGSAKPLADGAAPAGYDVKGNKDSMKYHEPGGRWYDATVAEVWFKTAADAEAAGFVKAGA”, for which the “soluble fraction (log2)” value was 0.167.
The value for “HMDEFHLSERERQILNLLVLGHTYKHIASDLNIAYATVNKHVSNVYAKLRVQSASEAVALAIRKGL” was -0.992; that for “HMDEFTIILEDAGSQKIAVIKEVRVLNSSLGLKEAKDLVDATPATIMEKADKATADKAKAAFEAAGAKVTI” was -0.257; that for “HMDEIDYSKYSITTSNRIINIDGVQSKVELFDVSGRSIQSTMVTGKFSSRPLNAGFYIIHVDGYSVKVSV” was -1.19.
Turning to “HMDELIKQVANYIINNRATINETAGAFGKSVSSIKKYINDADKLQRIDFELYQKVKEVQKIVELNGQI”, the “soluble fraction (log2)” value is -0.396.
In the case of “HMDEMEFQKYVDQNLKQKGISLTAEAKAELLLRLGGDTMLLHSAIEKLDLYGEKNLNLNDIKHLVSLNSDV”, the “soluble fraction (log2)” value worked out at 0.254.
As for “HMDENMQRYNTMEEIKKEFPYAEDTVRKLIAMGAIRGGGKVDANGDPADMDLSRDMLRMMVFNDRAGAYG”, the “soluble fraction (log2)” value came out at 0.524.
The value for “HMDEPGTGFKWREDVLLRVMEANGIDTSHRDDFVRHAVKFDNDDNLYLKKAEIEDAAAAWVSEHS” was 0.161; that for “HMDERLAKLTPQERKILDLIAEGATNRQIGTELHLAEKTVKNYVSNMLMKLGMSRRTEAAVFAVKASIN” was -1.9; that for “HMDERLLRLYERELQFLREGADEFAQAYPKVAGHLGLNSQSMGDPFIERLLEGLGFLTARIQLQLESEF” was -0.47.
The value for “HMDEWFPVNDDYKFMVGDEVRTPDGLVKVVATHNDSATFYGKIITPIHDDVLKGETYEYRSYEAQVLA” was -0.331.
The value for “HMDEWKRKELWDAIARLPKIQRMVVTMRTTENLPYKEIAKIMNISENSAKVNYHHAVEALKIFF” was -2.84; that for “HMDEYGEVQALQRAGQTSEALARADRHIAAHPNDPQMRFVKANLLSAGGRAGEAETLLVQLTRD” was -0.0543.
As to “HMDFDLIAIFEEQFARALSPIEINIIKEWKNSNYSDDMIVKALKEAVKSQVFNFRYIERILINWSQNG”, the “soluble fraction (log2)” value is -1.9.
The value for “HMDFDVELTSAGTAKVKVIKAVREATGLGLKEAKDLVDNAPSIVKEGLDEAAANDLKAALEETGASVTL” was 0.0189; that for “HMDFEEGAVKWFNTKKGYGFITRDQGDDIFVHFRNIKAQSRRSLTDGERVTFVVTEGDKGLQADHVSPV” was -0.411.
As for “HMDFGHWAAHKLEQMSEYRLRHGEAVAIGIALDVLYSVRQGLLARPAAERILSLLERLGFTLFDPELKS”, the “soluble fraction (log2)” value stood at 0.224.
To “HMDFLKSVDLSKYSKVESLILSHLSKGDFDIDDFIRSFSLGTDEVTRAIVSLEIEGIILRKGNRIFRKKS” belongs -1.38; to “HMDFMNSEIKKIVEDLKLTLQSLNYTKNEIKSILPVINKETDNLIKKEKYASFENLLRLAMNHLDNN”, -0.751.
The value for “HMDFTPDQIARLDDIISRYKDKPGGLIPVLEEAQVALEYLPIGVQKRIAKGLNLPLSRVYGVVTFYSFFTM” was -0.0122; that for “HMDFVKGDTVVFIDAFMPDHLMTIHKVQGEGILLDGNHKFALAHLIRHASTVELNAKRRLSLTEQS” was -2.42.
To “HMDGASLLDIDGDGKVTPTIDGLLLMRWQFGTRGAALIGGISFPAGALRTTVNAIELHMRRLSETT” belongs -0.699; to “HMDGDVAVKGGDGVLEVRLANAANVRVYNLAGRLMADYTGTELHMPLPKGVYMVVAGDNRTKVVV”, -0.476.
On to “HMDGEINPYTGREYVTNSVRMHPRRIGYVQVYSRKDHKWTDMTEWAFLGEQERKKVLLGKAYEPPVYL”, for which the “soluble fraction (log2)” value was -1.91.
On to “HMDGEMRRKRILQLLSEQTKPLSGTALAKQFGVSRQVIVQDIALLKSKEPAIISTYRGYVLGR”, for which the “soluble fraction (log2)” value is -1.25.
To “HMDGFAEFWSAYPKKVGKGAAEASWRKHRPPLQTVLDAVKRQAESDQWRKDGGQFIPNPATWLNQKRWEDD” belongs -0.0375; to “HMDGIIIPDVSGKSYAEAVATLNEKGFKVEKGEDAGSSLAKDLVSYTNPAAGNRAKSGATISVFVSTGANA”, 0.407; to “HMDGKTALQEIVASSGWSPPEYKVSESGPDHDKDFVAYAIVNGVAYPEGHGKSKREAEQVAARIAFEALSK”, -0.0295.
The value for “HMDGMRASDMVRAALAGAGKTQKELAEHMGWTPQNLSGRLKNNSLTFDELSKALHFAGYEVSMSDANGAG” was 0.0394; that for “HMDGNVPSVEGKPLSGAKYILETYGYKTGTVTEVNSEDVPAGIVISQNPARGTTLANGGSVNLQVSLG” was 0.645; that for “HMDGPGAGGRFLAEDLGTGKMTLEALQRHYVTLVYSRTGKYEETARRLEIDRRTVKKYLDEELLAELRET” was 0.0914.
In the case of “HMDGQGIRSITPEYYLSDSATKMPDASSSGWKSVPDDYIDKHYYWVRSKILWDDGTYTTTTPVL”, the “soluble fraction (log2)” value is -0.17.
To “HMDGRVQATAEKLRAALDRLARSSVGSPMIERQLTVAALAREARVGRNAIYANHRDILDELIRVRQQRRA” belongs 0.155; to “HMDGTAKVAHMLVNELETFNRLKKHEIAYMLHIQPETLSRILNKLTRNGTIEIEKNSVVILNIQELKEIY”, -1.95; to “HMDGVNRDKIEYRLDDLYYLKGSDAPYTGKVFEEWSGQQRVETNYIDGKLDGLSESWHENGQKASEVNY”, 0.486.
The value for “HMDHFLRRFQVEGLNLEKLLRLAAEREMDLLQVRRSGRRMTGLVAEKRLPELEELAAQGGWALRLGEY” was -0.843; that for “HMDHSSLIKKLRLERGLSQKKLAQGISQRSTLASFENNATKISYNILIQYLDRMNVTLEEYQFMLDGNNL” was -2.27.
The value for “HMDHWQSVNSALELLEVSRRTLYDYISRKKLQTKKEGKYRYVWIDDDVIEEIKTSKSAYIEINN” was -2.21.
Regarding “HMDIAATTVKQKIRTLLADEDAARPLSDQKIADALAEDGIDVARRTVAKYREELGIEPSWARKR”, the “soluble fraction (log2)” value came to 0.106.
The value for “HMDIDLGAVEEQAVKGSGPGGQKMNKTSSGVLLRYRLGEELVLVKWTRERQHSLNRFLALRELVDEIEAR” was 0.976; that for “HMDIFFEKIFNILIGYNQNQENLISEKSILNFHLSHKSNSNFEYIPDEKTPKYIWKYLSNYNLLE” was -0.439.
“HMDIFLPDVKGYDLIPSFRRHLPDIDVIAMTGYNTRALESAVRQQDVLFYMIKPFEASQLKEILEHLVK”: the “soluble fraction (log2)” value is -0.16.
In the case of “HMDIKEIIKNRRIELGLTLKEVATAVGVSEGTVSRWESGNITNMKRNKIAALAKTLQIPPTTI”, the “soluble fraction (log2)” value is -0.618.
To “HMDIKKHISATLKREMEKRGLNFMEFSTELGIPRTTLQGYLKGTSSPQADSLEELADKLGISPAELVSG” belongs -0.0134; to “HMDIMLLLYKNIKKRRLEIGMSQEELAQKTGYTSRSSIAKIEKGEVDLQLSKIKLFANALRVSQSELMG”, -3.49.
“HMDIMTVGERVKKLAEKQGISLRELAKKAELSYNTVYSITRRGSERVAPDTISRLANALGVNVNELT”: the “soluble fraction (log2)” value was -0.263.
Regarding “HMDINEIILKVASEKKTFKTSDVLEALDNNYTKQHVSALISAMVKKGILVKAGSTAKSTYALPENASLL”, the “soluble fraction (log2)” value was -1.26.
To “HMDINIETLNYYVGKAKIPLSELRISVKNIDLFLSGEKQPTFNQLSSIAKKLNIPTGLLLLDESIEV” belongs -3; to “HMDIPGITAVKPQAAFYMFPKIDVKKFNIVNDEKFALDLLQDKKILIVQGSGFNWKQPDHFRVV”, 0.177; to “HMDIRVAHVDDDMSFGEAFAQARSQVGPGGVFEWHGKLYGTYTAEEWASMSPAERSQYQQAVFN”, -0.133.
The value for “HMDIVLPFSFAKRHGVVLSERQGETELLYLKGLPVRVLAEARRVLRQEFTVRQVEQAVFDKALSESYQN” was -0.957.
